Data published in IntAct's records for PubMed 20300064.

B1: Rho guanine nucleotide exchange factor 11 (Homo sapiens), O15085 (parent)
chain: MSVRLPQSIDRLSSLSSLGDSAPERKSPSHHRQPSDASETTGLVQRCVIIQKDQHGFGFTVSGDRIVLVQSVRPGGAAMKAGVKEGDRIIKVNGTMVTNSSHLEVVKLIKSGAYVALTLLGSSPSSMGISGLQQDPSPAGAPRITSVIPSPPPPPPLPPPQRITGPKPLQDPEVQKHATQILRNMLRQEEKELQDILPLYGDTSQRPSEGRLSLDSQEGDSGLDSGTERFPSLSESLMNRNSVLSDPGLDSPRTSPVIMARVAQHHRRQGSDAAVPSTGDQGVDQSPKPLIIGPEEDYDPGYFNNESDIIFQDLEKLKSRPAHLGVFLRYIFSQADPSPLLFYLCAEVYQQASPKDSRSLGKDIWNIFLEKNAPLRVKIPEMLQAEIDSRLRNSEDARGVLCEAQEAAMPEIQEQIHDYRTKRTLGLGSLYGENDLLDLDGDPLRERQVAEKQLAALGDILSKYEEDRSAPMDFALNTYMSHAGIRLREARPSNTAEKAQSAPDKDKWLPFFPKTKKSSNSKKEKDALEDKKRNPILKYIGKPKSSSQSTFHIPLSPVEVKPGNVRNIIQHFENNQQYDAPEPGTQRLSTGSFPEDLLESDSSRSEIRLGRSESLKGREEMKRSRKAENVPRSRSDVDMDAAAEATRLHQSASSSTSSLSTRSLENPTPPFTPKMGRRSIESPSLGFCTDTLLPHLLEDDLGQLSDLEPEPDAQNWQHTVGKDVVAGLTQREIDRQEVINELFVTEASHLRTLRVLDLIFYQRMKKENLMPREELARLFPNLPELIEIHNSWCEAMKKLREEGPIIKEISDLMLARFDGPAREELQQVAAQFCSYQSIALELIKTKQRKESRFQLFMQEAESHPQCRRLQLRDLIISEMQRLTKYPLLLESIIKHTEGGTSEHEKLCRARDQCREILKYVNEAVKQTENRHRLEGYQKRLDATALERASNPLAAEFKSLDLTTRKMIHEGPLTWRISKDKTLDLHVLLLEDLLVLLQKQDEKLLLKCHSKTAVGSSDSKQTFSPVLKLNAVLIRSVATDKRAFFIICTSKLGPPQIYELVALTSSDKNTWMELLEEAVRNATRHPGAAPMPVHPPPPGPREPAQQGPTPSRVELDDSDVFHGEPEPEELPGGTGSQQRVQGKHQVLLEDPEQEGSAEEEELGVLPCPSTSLDGENRGIRTRNPIHLAFPGPLFMEGLADSALEDVENLRHLILWSLLPGHTMETQAAQEPEDDLTPTPSVISVTSHPWDPGSPGQAPPGGEGDNTQLAGLEGERPEQEDMGLCSLEHLPPRTRNSGIWESPELDRNLAEDASSTEAAGGYKVVRKAEVAGSKVVPALPESGQSEPGPPEVEGGTKATGNCFYVSMPSGPPDSSTDHSEAPMSPPQPDSLPAGQTEPQPQLQGGNDDPRRPSRSPPSLALRDVGMIFHTIEQLTLKLNRLKDMELAHRELLKSLGGESSGGTTPVGSFHTEAARWTDGSLSPPAKEPLASDSRNSHELGPCPEDGSDAPLEDSTADAAASPGP

Variants of: B1
Details: with rhoa_human RHOA

effect of a mutation on the interaction | Variant
disrupting interaction | D873N
disrupting interaction | R872D
disrupting interaction | I876M

Variants of: B1
Details: with rhoa_human RHOA
Remark: another data set of the same source

effect of a mutation on the interaction | Variant
decreasing interaction | S748A
decreasing interaction | E741N

Variants of: B1
Details: with rhoa_human RHOA
Remark: another data set of the same source

effect of a mutation on the interaction | Variant
disrupting interaction | R868G
disrupting interaction | L869A
disrupting interaction | R867Q

Variants of: B1
Details: with rhoa_human RHOA
Remark: another data set of the same source

effect of a mutation on the interaction | Variant
disrupting interaction | E928A
